Measured values taken from patent publication US20260325660 (published 2026).

Assays:
[1] = biological target: ROR1 extracellular segment (with transmembrane) on CHO (human); assay: FACS
[2] = biological target: ROR1 with Ig-like domain removed (human); assay: FACS
[3] = biological target: T1, ROR1 with Frizzled domain removed (human); assay: FACS
T1 chain: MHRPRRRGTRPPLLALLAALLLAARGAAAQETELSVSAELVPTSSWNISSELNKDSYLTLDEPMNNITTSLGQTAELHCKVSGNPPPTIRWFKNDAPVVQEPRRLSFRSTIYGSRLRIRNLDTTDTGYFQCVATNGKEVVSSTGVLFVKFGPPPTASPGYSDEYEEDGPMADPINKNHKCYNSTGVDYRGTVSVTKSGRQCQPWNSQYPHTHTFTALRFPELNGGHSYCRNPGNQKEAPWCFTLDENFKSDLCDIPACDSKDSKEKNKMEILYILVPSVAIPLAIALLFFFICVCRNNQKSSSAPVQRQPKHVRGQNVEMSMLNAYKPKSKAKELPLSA

[4] = biological target: ROR1 with Kringle domain removed (human); assay: FACS
human ROR1-ECD = human ROR1-ECD (human); assay: ELISA
[5] = biological target: T2, human ROR1 on tumor cell surface (human, UniProt Q01973); assay: FACS, NCI-H226
[6] = biological target: T2, human ROR1 on tumor cell surface; assay: FACS, MDA-MB-231
human ROR2-ECD = human ROR2-ECD (human, UniProt Q01974); assay: ELISA
[7] = biological target: ROR1 with Ig-like domain removed (human); assay: FACS; remark: listed apart in the source

T2 sequence (Q01973 30-406): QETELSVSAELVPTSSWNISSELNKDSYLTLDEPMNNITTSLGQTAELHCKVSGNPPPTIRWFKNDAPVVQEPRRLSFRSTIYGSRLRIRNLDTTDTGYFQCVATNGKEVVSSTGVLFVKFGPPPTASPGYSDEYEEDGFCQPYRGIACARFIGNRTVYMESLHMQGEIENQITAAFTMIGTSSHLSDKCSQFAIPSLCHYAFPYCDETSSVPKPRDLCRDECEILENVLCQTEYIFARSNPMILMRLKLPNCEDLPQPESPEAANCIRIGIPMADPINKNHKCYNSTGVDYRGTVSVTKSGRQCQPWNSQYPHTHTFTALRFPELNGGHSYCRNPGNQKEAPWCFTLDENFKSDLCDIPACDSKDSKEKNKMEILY
Chain of human ROR1-ECD (human) (chain, as listed by the source): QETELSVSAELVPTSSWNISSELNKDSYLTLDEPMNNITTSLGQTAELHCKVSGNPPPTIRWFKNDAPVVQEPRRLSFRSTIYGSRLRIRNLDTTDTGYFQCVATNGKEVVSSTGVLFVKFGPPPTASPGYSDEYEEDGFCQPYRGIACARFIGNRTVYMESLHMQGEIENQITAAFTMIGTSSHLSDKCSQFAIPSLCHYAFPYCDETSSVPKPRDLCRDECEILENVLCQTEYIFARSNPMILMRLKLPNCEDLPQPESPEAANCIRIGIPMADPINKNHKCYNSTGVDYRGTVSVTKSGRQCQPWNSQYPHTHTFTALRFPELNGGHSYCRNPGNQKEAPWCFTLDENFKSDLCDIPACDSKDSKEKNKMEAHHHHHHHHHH
Chain of human ROR2-ECD (Q01974 34-403): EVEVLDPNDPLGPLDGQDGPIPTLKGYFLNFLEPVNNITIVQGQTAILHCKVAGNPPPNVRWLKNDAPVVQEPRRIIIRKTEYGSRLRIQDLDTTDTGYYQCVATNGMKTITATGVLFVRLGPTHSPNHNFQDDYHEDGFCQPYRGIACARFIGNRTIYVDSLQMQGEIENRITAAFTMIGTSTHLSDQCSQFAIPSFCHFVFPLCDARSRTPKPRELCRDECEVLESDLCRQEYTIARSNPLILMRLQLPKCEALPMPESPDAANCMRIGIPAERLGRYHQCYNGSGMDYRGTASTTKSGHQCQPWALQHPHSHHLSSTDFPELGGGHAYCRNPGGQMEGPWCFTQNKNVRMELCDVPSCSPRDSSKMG

B1: mAb002c (antibody)
chain 1: EVQLQQSGPELVKPGASVKMSCKTSGYTFTDYNLHWVKQSHRRSLEWIGYINPNNGGTTYNQKFKGKATLTVDKSSSTAYMELRSLTSEDSAVYYFVRRVRTGTGFDYWGQGTTLTVSS
chain 2: EVLMTQTPLSLPVSLGDQASISCKSSHNILHTNGNTYLEWYLQKPGQSPKLLIYKVSNRFSGVPDRFSGSGSGTDFTLTISRVEAEDLGVYYCFQGSRFPYTFGGGTKLEIK
For B1, the EC50 [1] was 0.6 nM, the EC50 [2] was 0.35 nM and the EC50 [3] was 0.86 nM. It also gave an EC50 [4] of 0.66 nM, an EC50 (human ROR1-ECD) of 0.013 nM and an EC50 [5] of 0.14 nM. It also gave an EC50 [6] of 0.2 nM.

B2: mAb002 (mouse) (antibody)
chain 1: EVQLQQSGPELVKPGASVKMSCKTSGYTFTDYNLHWVKQSHRRSLEWIGYINPNNGGTTYNQKFKGKATLTVDKSSSTAYMELRSLTSEDSAVYYFVRRVRTGTGFDYWGQGTTLTVSS
chain 2: EVLMTQTPLSLPVSLGDQASISCKSSHNILHTNGNTYLEWYLQKPGQSPKLLIYKVSNRFSGVPDRFSGSGSGTDFTLTISRVEAEDLGVYYCFQGSRFPYTFGGGTKLEIK
B2 gave an EC50 (human ROR1-ECD) of 0.028 nM and an EC50 [6] of 0.11 nM.

B3: Hu001-02 (antibody, V domains shown)
VH: QVQLVQSGAEVKKPGASVKVSCKASGYTFTDYNLHWVRQAPGQGLEWMGYINPNHDATSYNQKFQGRVTMTRDTSTSTVYMELSSLRSEDTAVYYCARRVRTGTGLDDWGQGTTVTVSS
VL: DVVMTQSPLSLPVTLGQPASISCRSSHNIVHTNANTYLEWYQQRPGQSPRLLIYKVSNRFSGVPDRFSGSGSGTDFTLKISRVEAEDVGVYYCFQGSRFPYTFGGGTKVEIK
B3: no binding (human ROR2-ECD).

B4: mAb005c (antibody, V domains shown)
VH: EVQLVESGGGLVKPGGSLKLSCAASGFTFNSYAMSWVRQTPEKRLEWVATISDGGSYTYYPDNEKGRFTISRDNAKNNLYLQMSHLKSEDTAIYYCVRGGYYYNLYAMDYWGQGTSVTVSS
VL: DIVLTQSPASLAVSLGQRAIISCKASQSVSFPGTSLMHWYQQKPGQQPKLLIYRASNLEAGVPTRFSGSGSRTDFTLNIHPVEEDDTATYYCQQSREYPWTFGGGTQLEIK
B4: no binding [7].

B5: mAb003c (antibody, V domains shown)
VH: EVQLVESGGGLVKPGGSLKLSCAASGFTFSSYAMSWVRQTPEKRLEWVATISDGGSYTYYPDSVKGRFTISRDNAKNNLYLQMSHLKSEDTDMYYCVRGGYYYNLYAMDYWGQGTSVTVSS
VL: DIVLTQSPASLAVSLGQRAIISCKASQSVSFAGTSLMHWYQQKPGQQPKLLIYRASNLEAGVPTRFSGSGSRADFTLNIHPVEEDDAATYYCQQSGEYPWTFGGGTKLEIK
B5: no binding [7].

B6: Hu005-46 (antibody, V domains shown)
VH: EVQLVESGGGLVKPGGSLRLSCAASGFTFNSYAMSWVRQTPGKRLEWVATISDAGSYTYYPDNEKGRFTISRDNAKNSLYLQMNSLRAEDTAIYYCVRGGYYYNLYAMDYWGQGTLVTVSS
VL: DIVLTQSPDSLAVSLGERATINCKASQSVSFPGTSLMHWYQQKPGQQPKLLIYRASNLEAGVPDRFSGSGSRTDFTLTISSLQAEDVAVYYCQQSREYPWTFGGGTKVEIK
B6: no binding (human ROR2-ECD).

B7: UC-961 (antibody, V domains shown)
VH: QVQLQESGPGLVKPSQTLSLTCTVSGYAFTAYNIHWVRQAPGQGLEWMGSFDPYDGGSSYNQKFKDRLTISKDTSKNQVVLTMTNMDPVDTATYYCARGWYYFDYWGHGTLVTVSS
VL: DIVMTQTPLSLPVTPGEPASISCRASKSISKYLAWYQQKPGQAPRLLIYSGSTLQSGIPPRFSGSGYGTDFTLTINNIESEDAAYYFCQQHDESPYTFGEGTKVEIK
B7: no binding [7].
